Reference: patent publication US20200270325A1 (Merck Sharp & Dohme, published 2020)
Numbered stars: 1 amine (or outer) side, 2 acyl side, 3 side chain; on linkers, the order of the positions; unused ones are H or OH. Square brackets hold non-standard residues; d marks the D form. Side chains are listed from the residue outwards. Ends that are not written are not given here. * marks the point of attachment. Phe(4-CH2NH2) = NCc1ccc(C[C@H](N)C(=O)O)cc1; C18 diacid = O=C(O)CCCCCCCCCCCCCCCCC(=O)*; γGlu = O=C(O)[C@H](CCC(=O)[*:2])N[*:1]; Met(O2) = CS(=O)(=O)CC[C@H](N)C(=O)O; αMeD = C[C@](N)(CC(=O)O)C(=O)O; AEEA = NCCOCCOCC(=O)O; Aib = CC(C)(N)C(=O)O

B1: TP609 (peptide)
peptide: H[Aib]QGTFTSDYSKYLDARAAQ[Phe(4-CH2NH2)]([AEEA-AEEA-γGlu-C18 diacid])FVQWLL[αMeD]T-NH2
modifications: N-terminus assumed
SMILES: CC(C)C[C@H](NC(=O)[C@H](Cc1ccc(O)cc1)NC(=O)[C@H](CCCCN)NC(=O)[C@H](CO)NC(=O)[C@H](Cc1ccc(O)cc1)NC(=O)[C@H](CC(=O)O)NC(=O)[C@H](CO)NC(=O)[C@@H](NC(=O)[C@H](Cc1ccccc1)NC(=O)[C@@H](NC(=O)CNC(=O)[C@H](CCC(N)=O)NC(=O)C(C)(C)NC(=O)[C@@H](N)Cc1c[nH]cn1)[C@@H](C)O)[C@@H](C)O)C(=O)N[C@@H](CC(=O)O)C(=O)N[C@@H](C)C(=O)N[C@@H](CCCNC(=N)N)C(=O)N[C@@H](C)C(=O)N[C@@H](C)C(=O)N[C@@H](CCC(N)=O)C(=O)N[C@@H](Cc1ccc(CNC(=O)COCCOCCNC(=O)COCCOCCNC(=O)CC[C@H](NC(=O)CCCCCCCCCCCCCCCCC(=O)O)C(=O)O)cc1)C(=O)N[C@@H](Cc1ccccc1)C(=O)N[C@H](C(=O)N[C@@H](CCC(N)=O)C(=O)N[C@@H](Cc1c[nH]c2ccccc12)C(=O)N[C@@H](CC(C)C)C(=O)N[C@@H](CC(C)C)C(=O)N[C@@](C)(CC(=O)O)C(=O)N[C@H](C(N)=O)[C@@H](C)O)C(C)C
B2: TP604 (peptide)
peptide: H[Aib]QGTFTSDYSKYLDARAAQDFVQWL[Met(O2)][Phe(4-CH2NH2)]([AEEA-AEEA-γGlu-C18 diacid])T-NH2
modifications: N-terminus assumed
SMILES: CC(C)C[C@H](NC(=O)[C@H](Cc1ccc(O)cc1)NC(=O)[C@H](CCCCN)NC(=O)[C@H](CO)NC(=O)[C@H](Cc1ccc(O)cc1)NC(=O)[C@H](CC(=O)O)NC(=O)[C@H](CO)NC(=O)[C@@H](NC(=O)[C@H](Cc1ccccc1)NC(=O)[C@@H](NC(=O)CNC(=O)[C@H](CCC(N)=O)NC(=O)C(C)(C)NC(=O)[C@@H](N)Cc1c[nH]cn1)[C@@H](C)O)[C@@H](C)O)C(=O)N[C@@H](CC(=O)O)C(=O)N[C@@H](C)C(=O)N[C@@H](CCCNC(=N)N)C(=O)N[C@@H](C)C(=O)N[C@@H](C)C(=O)N[C@@H](CCC(N)=O)C(=O)N[C@@H](CC(=O)O)C(=O)N[C@@H](Cc1ccccc1)C(=O)N[C@H](C(=O)N[C@@H](CCC(N)=O)C(=O)N[C@@H](Cc1c[nH]c2ccccc12)C(=O)N[C@@H](CC(C)C)C(=O)N[C@@H](CCS(C)(=O)=O)C(=O)N[C@@H](Cc1ccc(CNC(=O)COCCOCCNC(=O)COCCOCCNC(=O)CC[C@H](NC(=O)CCCCCCCCCCCCCCCCC(=O)O)C(=O)O)cc1)C(=O)N[C@H](C(N)=O)[C@@H](C)O)C(C)C
B3: TP608 (peptide)
peptide: HXQGTFTSDYSKYLDARAAQXFVQWLXXT
modifications: Aib (U) at 2; K(PEG5-γEC18-OH) at 21; L-methionine sulphone (2) at 27; αMD (printed aMD) at 28; C-terminal amide
B4: TP597 (peptide)
peptide: H[Aib]QGTFTSDYSKLLDARAAK([AEEA-AEEA-γGlu-C18 diacid])DFVQWL[Met(O2)]DT-NH2
modifications: N-terminus assumed
SMILES: CC(C)C[C@H](NC(=O)[C@H](CC(C)C)NC(=O)[C@H](CCCCN)NC(=O)[C@H](CO)NC(=O)[C@H](Cc1ccc(O)cc1)NC(=O)[C@H](CC(=O)O)NC(=O)[C@H](CO)NC(=O)[C@@H](NC(=O)[C@H](Cc1ccccc1)NC(=O)[C@@H](NC(=O)CNC(=O)[C@H](CCC(N)=O)NC(=O)C(C)(C)NC(=O)[C@@H](N)Cc1c[nH]cn1)[C@@H](C)O)[C@@H](C)O)C(=O)N[C@@H](CC(=O)O)C(=O)N[C@@H](C)C(=O)N[C@@H](CCCNC(=N)N)C(=O)N[C@@H](C)C(=O)N[C@@H](C)C(=O)N[C@@H](CCCCNC(=O)COCCOCCNC(=O)COCCOCCNC(=O)CC[C@H](NC(=O)CCCCCCCCCCCCCCCCC(=O)O)C(=O)O)C(=O)N[C@@H](CC(=O)O)C(=O)N[C@@H](Cc1ccccc1)C(=O)N[C@H](C(=O)N[C@@H](CCC(N)=O)C(=O)N[C@@H](Cc1c[nH]c2ccccc12)C(=O)N[C@@H](CC(C)C)C(=O)N[C@@H](CCS(C)(=O)=O)C(=O)N[C@@H](CC(=O)O)C(=O)N[C@H](C(N)=O)[C@@H](C)O)C(C)C
B5: TP575 (peptide)
peptide: H[Aib]QGTFTSDYSKYLD[Aib]RAAQDFVK([AEEA-AEEA-γGlu-C18 diacid])WL[Met(O2)]DT-NH2
modifications: N-terminus assumed
SMILES: CC(C)C[C@H](NC(=O)[C@H](Cc1c[nH]c2ccccc12)NC(=O)[C@H](CCCCNC(=O)COCCOCCNC(=O)COCCOCCNC(=O)CC[C@H](NC(=O)CCCCCCCCCCCCCCCCC(=O)O)C(=O)O)NC(=O)[C@@H](NC(=O)[C@H](Cc1ccccc1)NC(=O)[C@H](CC(=O)O)NC(=O)[C@H](CCC(N)=O)NC(=O)[C@H](C)NC(=O)[C@H](C)NC(=O)[C@H](CCCNC(=N)N)NC(=O)C(C)(C)NC(=O)[C@H](CC(=O)O)NC(=O)[C@H](CC(C)C)NC(=O)[C@H](Cc1ccc(O)cc1)NC(=O)[C@H](CCCCN)NC(=O)[C@H](CO)NC(=O)[C@H](Cc1ccc(O)cc1)NC(=O)[C@H](CC(=O)O)NC(=O)[C@H](CO)NC(=O)[C@@H](NC(=O)[C@H](Cc1ccccc1)NC(=O)[C@@H](NC(=O)CNC(=O)[C@H](CCC(N)=O)NC(=O)C(C)(C)NC(=O)[C@@H](N)Cc1c[nH]cn1)[C@@H](C)O)[C@@H](C)O)C(C)C)C(=O)N[C@@H](CCS(C)(=O)=O)C(=O)N[C@@H](CC(=O)O)C(=O)N[C@H](C(N)=O)[C@@H](C)O
B6: TP628 (peptide)
peptide: H[Aib]QGTFTSDYSKYLDARAAK([AEEA-γGlu-C18 diacid])DFVQWL[Met(O2)][αMeD]T-NH2
modifications: N-terminus assumed
SMILES: CC(C)C[C@H](NC(=O)[C@H](Cc1ccc(O)cc1)NC(=O)[C@H](CCCCN)NC(=O)[C@H](CO)NC(=O)[C@H](Cc1ccc(O)cc1)NC(=O)[C@H](CC(=O)O)NC(=O)[C@H](CO)NC(=O)[C@@H](NC(=O)[C@H](Cc1ccccc1)NC(=O)[C@@H](NC(=O)CNC(=O)[C@H](CCC(N)=O)NC(=O)C(C)(C)NC(=O)[C@@H](N)Cc1c[nH]cn1)[C@@H](C)O)[C@@H](C)O)C(=O)N[C@@H](CC(=O)O)C(=O)N[C@@H](C)C(=O)N[C@@H](CCCNC(=N)N)C(=O)N[C@@H](C)C(=O)N[C@@H](C)C(=O)N[C@@H](CCCCNC(=O)COCCOCCNC(=O)CC[C@H](NC(=O)CCCCCCCCCCCCCCCCC(=O)O)C(=O)O)C(=O)N[C@@H](CC(=O)O)C(=O)N[C@@H](Cc1ccccc1)C(=O)N[C@H](C(=O)N[C@@H](CCC(N)=O)C(=O)N[C@@H](Cc1c[nH]c2ccccc12)C(=O)N[C@@H](CC(C)C)C(=O)N[C@@H](CCS(C)(=O)=O)C(=O)N[C@@](C)(CC(=O)O)C(=O)N[C@H](C(N)=O)[C@@H](C)O)C(C)C
B7: TP598 (peptide)
peptide: H[Aib]QGTFTSDYSKYLDAKAAK([AEEA-AEEA-γGlu-C18 diacid])DFVQWL[Met(O2)]DT-NH2
modifications: N-terminus assumed
SMILES: CC(C)C[C@H](NC(=O)[C@H](Cc1ccc(O)cc1)NC(=O)[C@H](CCCCN)NC(=O)[C@H](CO)NC(=O)[C@H](Cc1ccc(O)cc1)NC(=O)[C@H](CC(=O)O)NC(=O)[C@H](CO)NC(=O)[C@@H](NC(=O)[C@H](Cc1ccccc1)NC(=O)[C@@H](NC(=O)CNC(=O)[C@H](CCC(N)=O)NC(=O)C(C)(C)NC(=O)[C@@H](N)Cc1c[nH]cn1)[C@@H](C)O)[C@@H](C)O)C(=O)N[C@@H](CC(=O)O)C(=O)N[C@@H](C)C(=O)N[C@@H](CCCCN)C(=O)N[C@@H](C)C(=O)N[C@@H](C)C(=O)N[C@@H](CCCCNC(=O)COCCOCCNC(=O)COCCOCCNC(=O)CC[C@H](NC(=O)CCCCCCCCCCCCCCCCC(=O)O)C(=O)O)C(=O)N[C@@H](CC(=O)O)C(=O)N[C@@H](Cc1ccccc1)C(=O)N[C@H](C(=O)N[C@@H](CCC(N)=O)C(=O)N[C@@H](Cc1c[nH]c2ccccc12)C(=O)N[C@@H](CC(C)C)C(=O)N[C@@H](CCS(C)(=O)=O)C(=O)N[C@@H](CC(=O)O)C(=O)N[C@H](C(N)=O)[C@@H](C)O)C(C)C
B8: TP443 (peptide)
peptide: H[Aib]QGTFTSDYSKYLDARAAQ[Phe(4-CH2NH2)]([AEEA-AEEA-γGlu-C18 diacid])FVQWLLDT-NH2
modifications: N-terminus assumed
SMILES: CC(C)C[C@H](NC(=O)[C@H](Cc1ccc(O)cc1)NC(=O)[C@H](CCCCN)NC(=O)[C@H](CO)NC(=O)[C@H](Cc1ccc(O)cc1)NC(=O)[C@H](CC(=O)O)NC(=O)[C@H](CO)NC(=O)[C@@H](NC(=O)[C@H](Cc1ccccc1)NC(=O)[C@@H](NC(=O)CNC(=O)[C@H](CCC(N)=O)NC(=O)C(C)(C)NC(=O)[C@@H](N)Cc1c[nH]cn1)[C@@H](C)O)[C@@H](C)O)C(=O)N[C@@H](CC(=O)O)C(=O)N[C@@H](C)C(=O)N[C@@H](CCCNC(=N)N)C(=O)N[C@@H](C)C(=O)N[C@@H](C)C(=O)N[C@@H](CCC(N)=O)C(=O)N[C@@H](Cc1ccc(CNC(=O)COCCOCCNC(=O)COCCOCCNC(=O)CC[C@H](NC(=O)CCCCCCCCCCCCCCCCC(=O)O)C(=O)O)cc1)C(=O)N[C@@H](Cc1ccccc1)C(=O)N[C@H](C(=O)N[C@@H](CCC(N)=O)C(=O)N[C@@H](Cc1c[nH]c2ccccc12)C(=O)N[C@@H](CC(C)C)C(=O)N[C@@H](CC(C)C)C(=O)N[C@@H](CC(=O)O)C(=O)N[C@H](C(N)=O)[C@@H](C)O)C(C)C

Target: human Glucagon receptor (GCGR) (human, UniProt P47871 26-477)
Experiment: cell-based or functional assay

Sequence of human Glucagon receptor (GCGR) (P47871 26-477): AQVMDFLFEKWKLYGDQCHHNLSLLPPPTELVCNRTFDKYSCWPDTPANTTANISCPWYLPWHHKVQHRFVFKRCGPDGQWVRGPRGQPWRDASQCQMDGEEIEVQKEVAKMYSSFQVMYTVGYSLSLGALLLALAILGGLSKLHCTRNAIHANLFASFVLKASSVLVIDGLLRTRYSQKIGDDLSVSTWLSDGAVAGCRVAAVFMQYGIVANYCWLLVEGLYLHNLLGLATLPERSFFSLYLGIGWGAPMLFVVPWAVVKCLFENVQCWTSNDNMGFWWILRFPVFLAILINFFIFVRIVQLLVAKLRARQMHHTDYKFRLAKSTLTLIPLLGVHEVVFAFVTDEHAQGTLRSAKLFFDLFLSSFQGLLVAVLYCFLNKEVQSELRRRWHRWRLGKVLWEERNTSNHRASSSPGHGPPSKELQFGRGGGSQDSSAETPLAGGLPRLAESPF

Binder | GCGR EC50 human [pM]
B1 | 360
B2 | 1090
B3 | 210
B4 | 740
B5 | 595
B6 | 860
B7 | 1140
B8 | 180

Target: human GLP-1 receptor (GLP1R) (human, UniProt P43220 24-463)
Experiment: cell-based or functional assay

Binder | GLP1R EC50 human [pM]
B1 | 420
B2 | 470
B3 | 230
B4 | 610
B5 | 866
B6 | 1390
B7 | 500
B8 | 100
